Assay results as given in paper PMC3394726.

Molecular target: chymotrypsin (bovine)

“scabies mite serpin SMSB3, wild type (from UniProt A0A131ZZL5 20-427) (natural protein)” showed a stoichiometry of inhibition (SI) from residual chymotrypsin activity at a 2-120:1 molar excess of SMSB3 of 12.9.
